# From IntAct's records for PubMed 21889351
# B1: Programmed cell death 6-interacting protein (Homo sapiens), Q8WUM4 (parent)
# chain: MATFISVQLKKTSEVDLAKPLVKFIQQTYPSGGEEQAQYCRAAEELSKLRRAAVGRPLDKHEGALETLLRYYDQICSIEPKFPFSENQICLTFTWKDAFDKGSLFGGSVKLALASLGYEKSCVLFNCAALASQIAAEQNLDNDEGLKIAAKHYQFASGAFLHIKETVLSALSREPTVDISPDTVGTLSLIMLAQAQEVFFLKATRDKMKDAIIAKLANQAADYFGDAFKQCQYKDTLPKEVFPVLAAKHCIMQANAEYHQSILAKQQKKFGEEIARLQHAAELIKTVASRYDEYVNVKDFSDKINRALAAAKKDNDFIYHDRVPDLKDLDPIGKATLVKSTPVNVPISQKFTDLFEKMVPVSVQQSLAAYNQRKADLVNRSIAQMREATTLANGVLASLNLPAAIEDVSGDTVPQSILTKSRSVIEQGGIQTVDQLIKELPELLQRNREILDESLRLLDEEEATDNDLRAKFKERWQRTPSNELYKPLRAEGTNFRTVLDKAVQADGQVKECYQSHRDTIVLLCKPEPELNAAIPSANPAKTMQGSEVVNVLKSLLSNLDEVKKEREGLENDLKSVNFDMTSKFLTALAQDGVINEEALSVTELDRVYGGLTTKVQESLKKQEGLLKNIQVSHQEFSKMKQSNNEANLREEVLKNLATAYDNFVELVANLKEGTKFYNELTEILVRFQNKCSDIVFARKTERDELLKDLQQSIAREPSAPSIPTPAYQSSPAGGHAPTPPTPAPRTMPPTKPQPPARPPPPVLPANRAPSATAPSPVGAGTAAPAPSQTPGSAPPPQAQGPPYPTYPGYPGYCQMPMPMGYNPYAYGQYNMPYPPVYHQSPGQAPYPGPQQPSYPFPQPPQQSYYPQQ
# partner: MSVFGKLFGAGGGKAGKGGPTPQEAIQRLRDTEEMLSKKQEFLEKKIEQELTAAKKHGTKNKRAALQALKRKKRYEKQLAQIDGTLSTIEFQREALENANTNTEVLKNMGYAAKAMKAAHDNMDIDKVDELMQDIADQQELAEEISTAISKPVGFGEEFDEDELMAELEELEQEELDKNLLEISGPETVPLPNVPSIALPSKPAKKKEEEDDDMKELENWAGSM
# Variants of: B1
# Details: with chm4b_human CHMP4B
row,Variant,effect of a mutation on the interaction
1,I212D,disrupting interaction
